The record followed here is publication PMC4609182.

This test deals with T1, Parkin R0RBR module (RING0, RING1, IBR, RING2), wild type (rat), Q9JK66.
T1 chain: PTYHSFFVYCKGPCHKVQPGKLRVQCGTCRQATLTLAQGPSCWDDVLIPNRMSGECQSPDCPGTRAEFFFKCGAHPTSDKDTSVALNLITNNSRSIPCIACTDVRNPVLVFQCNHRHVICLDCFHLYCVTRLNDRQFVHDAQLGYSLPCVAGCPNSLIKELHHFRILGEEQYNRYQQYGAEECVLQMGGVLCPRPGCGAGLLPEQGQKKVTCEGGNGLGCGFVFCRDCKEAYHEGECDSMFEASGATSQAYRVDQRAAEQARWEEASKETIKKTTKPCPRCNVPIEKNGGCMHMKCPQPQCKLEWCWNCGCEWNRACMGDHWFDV
Nature of the test: ITC; R0RBR (wild type or L266K) titrated with Ubl or pUbl; 20°C; 50 mM Tris–HCl pH 7.4, 150 mM NaCl, 1 mM TCEP; stoichiometry determined experimentally.

B1: Parkin Ubl domain (ubiquitin-like domain), unmodified (domain or fragment)
chain: MIVFVRFNSSYGFPVEVDSDTSIFQLKEVVAKRQGVPADQLRVIFAGKELQNHLTVQNCDLEQQSIVHIVQRPQRK
modifications: not checked
For B1, the Kd was 16 µM.
